Our source for the Kd values is article PMC5339710, “Single-molecule studies reveal reciprocating of WRN helicase core along ssDNA during DNA unwinding”.

The target in data set [1] is T1, WRN helicase core (WRN512-1213) (Gallus gallus, UniProt D3KR65 512-1213).
T1 sequence: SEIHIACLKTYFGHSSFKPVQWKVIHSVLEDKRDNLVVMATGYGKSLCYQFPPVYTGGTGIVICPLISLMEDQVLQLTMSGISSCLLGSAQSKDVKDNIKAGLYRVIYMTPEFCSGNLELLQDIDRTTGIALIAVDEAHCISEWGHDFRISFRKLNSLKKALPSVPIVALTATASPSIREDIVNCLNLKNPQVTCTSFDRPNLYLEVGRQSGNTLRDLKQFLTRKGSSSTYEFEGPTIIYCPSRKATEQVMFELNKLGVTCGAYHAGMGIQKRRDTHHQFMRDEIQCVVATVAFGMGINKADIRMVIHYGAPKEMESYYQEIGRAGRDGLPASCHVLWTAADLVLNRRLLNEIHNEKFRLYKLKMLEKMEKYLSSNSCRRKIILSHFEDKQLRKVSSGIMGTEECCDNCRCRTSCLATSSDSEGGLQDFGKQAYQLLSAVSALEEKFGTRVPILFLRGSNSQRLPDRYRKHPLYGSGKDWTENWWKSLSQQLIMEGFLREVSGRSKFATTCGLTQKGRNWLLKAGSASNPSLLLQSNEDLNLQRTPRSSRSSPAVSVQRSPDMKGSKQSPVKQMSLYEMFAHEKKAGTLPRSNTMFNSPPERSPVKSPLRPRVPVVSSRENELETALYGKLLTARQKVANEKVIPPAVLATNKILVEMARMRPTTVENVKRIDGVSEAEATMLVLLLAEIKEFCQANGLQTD
Briefly: fluorescence polarization anisotropy; 5 mM Mg2+; no nucleotide stated; Hill coefficient 2; 20 mM Tris-HCl pH 8.0, 50 mM KCl, 5 mM MgCl2, 5 nM DNA, 25 C, 5 min equilibration. Conditions: protein: recombinant; tags: 6xHis-SUMO at N-terminus, cleaved with Ulp; label: fluorescein (FAM), position by colour only; blunt. In general terms: Fluorescence polarisation rises when a labelled molecule tumbles more slowly, as on binding a larger partner.

Data set [2] deals with T1, WRN helicase core (WRN512-1213). Briefly: fluorescence polarization anisotropy; 0.2 mM ADP; 5 mM Mg2+; Hill coefficient 1; 20 mM Tris-HCl pH 8.0, 50 mM KCl, 5 mM MgCl2, 5 nM DNA, 25 C, 5 min equilibration. The following applies: protein: recombinant; tags: 6xHis-SUMO at N-terminus, cleaved with Ulp; label: fluorescein (FAM), position by colour only; single strand.
Data set [3] shares this target. Kind of data set: fluorescence polarization anisotropy; 0.2 mM ATPgS; 5 mM Mg2+; Hill coefficient 1; 20 mM Tris-HCl pH 8.0, 50 mM KCl, 5 mM MgCl2, 5 nM DNA, 25 C, 5 min equilibration. Conditions: protein: recombinant; tags: 6xHis-SUMO at N-terminus, cleaved with Ulp; label: fluorescein (FAM), position by colour only; single strand.

B1: 16bp-FAM (dsDNA)
DNA 1: CTCTGCTCGACGGATT
DNA 2: AATCCGTCGAGCAGAG
On to B1, for which the dissociation constant Kd (commonly the free concentration of one partner at which half of the binding sites on the other are occupied at equilibrium, for simple one-to-one binding) in data set [1] is 32.2 ± 2.8 nM.
With CTCTGCTCGACGGATT (ssDNA) [16nt-FAM], the Kd came to 141 ± 10.5 nM in data set [2] and 76.6 ± 4.2 nM in data set [3].
